Measurements published in publication PMC12421958, “Dual regulatory role of cyclic di-GMP via the DgcY/HhmR complex in salt response of Halomonas hydrothermalis Y2” (mBio, 2025).
Values belong to the compound of their own block, whether it stands above or below them.

Key:
[1] = biological target: DgcY_(202–406) (Halomonas hydrothermalis Y2); assay: MST; His-tagged protein labelled with Red-tris-NTA, ligand in twofold serial dilutions, PBS-T buffer, 25°C; no c-di-GMP
[2] = biological target: DgcY_(202–406) (Halomonas hydrothermalis Y2); assay: MST; as a3, buffer containing 0.5 µM c-di-GMP
[3] = biological target: DgcY_(202–406) (Halomonas hydrothermalis Y2)
[4] = biological target: DgcY_(202–406) (Halomonas hydrothermalis Y2); assay: MST; as a3, buffer containing 15 µM c-di-GMP
[5] = biological target: DgcY_(202–406) (Halomonas hydrothermalis Y2); assay: MST; as a3, buffer containing 2.5 µM c-di-GMP
[6] = biological target: DgcY_(202–406) (Halomonas hydrothermalis Y2); remark: listed apart in the source
DgcY202–406 = biological target: T1, DgcY202–406; assay: microscale thermophoresis (MST); format: binding, Vreelandella hydrothermalis; conditions: 25 °C, PBS-T; without HhmR; His-tag protein labelled with RED-tris-NTA
T1 construct: gene dgcY; intracellular fragment 202-406 (helical domain 203-221 + GGDEF 222-406) of 406-residue protein, TM domain removed; pET24a, E. coli BL21(DE3), His-tag, labelled by RED-tris-NTA for MST

DgcY222–406 = biological target: T2, DgcY222–406; assay: microscale thermophoresis (MST); format: binding, Vreelandella hydrothermalis; conditions: 25 °C, PBS-T; without HhmR; His-tag protein labelled with RED-tris-NTA
T2 construct: gene dgcY; GGDEF domain 222-406 only, TM and helical (HD) regions removed; pET24a, E. coli BL21(DE3), His-tag

Kd [1]: 0.571 µM
Compound: HhmR_(90–305)^Q240D (domain or fragment)

Kd [2]: 0.105 µM
c-di-GMP made by DgcY202-406 with HhmR and 15 µM added c-di-GMP, HPLC, 37°C, 8 h (38 µM without added c-di-GMP) [3]: 30 µM
Kd [4]: 0.0341 µM
Kd [5]: 0.0905 µM
Kd [1]: 8.96 µM
c-di-GMP made by 10 µM DgcY202-406 with 15 µM HhmR, HPLC, 37°C, 2 to 8 h (with HhmR 9.47 µM at 3 h and 25.50 µM at 8 h; without HhmR 12.41 and 31.38 µM) [6]: 25.5 µM
Compound: HhmR (natural protein)

Compound: Nc1nc2c(ncn2[C@@H]2O[C@@H]3COP(=O)(O)O[C@H]4[C@@H](O)[C@H](n5cnc6c(=O)[nH]c(N)nc65)O[C@@H]4COP(=O)(O)O[C@H]3[C@H]2O)c(=O)[nH]1 [c-di-GMP]
Kd (DgcY202–406): 53.2 µM
Kd (DgcY222–406): 1170 µM

Kd [1]: 0.053 µM
Compound: HhmR_(90–305) (domain or fragment)
